Earlier results on 1 substance are cited in paper PMC4557399.

Series [1] concerns the target F1-ATP synthase beta subunit (Bos taurus) (UniProt P00829). Kind of series: bovine retinal endothelial cell binding.
Series [2] addresses F1-ATP synthase beta subunit (UniProt P06576). Kind of series: surface plasmon resonance. (In general: In SPR one partner is held on a chip, and binding of the other changes the refractive index at the surface.)

PEDF, sequence (P36955 20-418): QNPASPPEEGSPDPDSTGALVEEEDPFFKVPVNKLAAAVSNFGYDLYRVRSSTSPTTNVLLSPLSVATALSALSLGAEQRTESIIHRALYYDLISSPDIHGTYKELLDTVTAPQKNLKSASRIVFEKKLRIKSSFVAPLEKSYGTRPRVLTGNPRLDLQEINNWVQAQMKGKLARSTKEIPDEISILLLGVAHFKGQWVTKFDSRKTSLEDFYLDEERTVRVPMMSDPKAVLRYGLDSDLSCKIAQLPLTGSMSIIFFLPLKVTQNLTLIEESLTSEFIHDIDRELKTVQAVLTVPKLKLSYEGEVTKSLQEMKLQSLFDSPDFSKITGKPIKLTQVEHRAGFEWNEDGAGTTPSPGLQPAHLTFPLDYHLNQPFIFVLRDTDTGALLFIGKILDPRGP
F1-ATP synthase beta subunit, sequence (P06576 48-529): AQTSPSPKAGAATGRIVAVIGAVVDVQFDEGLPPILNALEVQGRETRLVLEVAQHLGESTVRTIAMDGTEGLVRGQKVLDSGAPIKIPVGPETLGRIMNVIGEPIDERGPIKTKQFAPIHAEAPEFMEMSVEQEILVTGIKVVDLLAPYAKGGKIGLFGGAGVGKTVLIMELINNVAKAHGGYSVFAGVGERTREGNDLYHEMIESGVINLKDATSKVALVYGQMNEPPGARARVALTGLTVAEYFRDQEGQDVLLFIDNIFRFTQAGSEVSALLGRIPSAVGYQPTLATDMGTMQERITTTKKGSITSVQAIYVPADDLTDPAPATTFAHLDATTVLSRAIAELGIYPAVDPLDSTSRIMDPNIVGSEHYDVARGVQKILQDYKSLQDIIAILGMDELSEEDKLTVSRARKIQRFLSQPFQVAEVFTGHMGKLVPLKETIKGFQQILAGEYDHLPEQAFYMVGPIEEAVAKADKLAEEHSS
F1-ATP synthase beta subunit (Bos taurus), sequence (P00829 47-528): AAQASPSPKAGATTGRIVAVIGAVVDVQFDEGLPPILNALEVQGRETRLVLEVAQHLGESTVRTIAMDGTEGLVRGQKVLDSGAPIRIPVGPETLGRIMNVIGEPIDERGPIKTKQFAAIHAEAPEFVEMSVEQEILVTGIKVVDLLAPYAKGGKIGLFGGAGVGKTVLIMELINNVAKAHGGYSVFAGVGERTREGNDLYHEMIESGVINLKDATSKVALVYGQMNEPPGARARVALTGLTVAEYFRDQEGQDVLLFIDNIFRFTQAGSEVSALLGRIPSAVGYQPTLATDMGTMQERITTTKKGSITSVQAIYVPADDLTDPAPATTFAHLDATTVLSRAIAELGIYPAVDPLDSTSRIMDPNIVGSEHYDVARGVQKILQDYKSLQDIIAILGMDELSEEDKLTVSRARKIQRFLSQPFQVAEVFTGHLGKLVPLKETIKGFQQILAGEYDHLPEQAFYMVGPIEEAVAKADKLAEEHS

For orientation: Kd means the concentration at which binding is half-saturated. With PEDF (from UniProt P36955), the results for the Kd in series [1] and in series [2] were 4 nM and 1.51 nM, respectively.
